Consider two molecules from patent US20220332827A1 (WUXI BIOLOGICS IRELAND, published 2022).

For assay [1], the target named is mouse PD-L1 protein (soluble) (mouse) (UniProt Q9EP73). Briefly: ELISA, scFv. More on the design: unit not given here. Background: An ELISA detects its analyte on a solid surface through an enzyme-linked reagent.
For assay [2], the target named is cynomolgus monkey PD-L1 protein (soluble) (cynomolgus monkey) (UniProt G7PSE7). Kind of assay: ELISA, scFv. The arrangement: unit not given here.
Sequence of cynomolgus monkey PD-L1 protein (soluble) (cynomolgus monkey) (G7PSE7 entry or part of it limits assumed): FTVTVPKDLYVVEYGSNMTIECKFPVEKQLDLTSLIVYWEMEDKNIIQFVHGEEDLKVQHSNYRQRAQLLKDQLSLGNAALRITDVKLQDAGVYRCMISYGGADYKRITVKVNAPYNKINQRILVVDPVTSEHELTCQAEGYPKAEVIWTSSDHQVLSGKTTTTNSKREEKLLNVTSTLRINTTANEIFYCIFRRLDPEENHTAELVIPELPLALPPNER
In assay [3] the target is human PD-L1 protein (soluble, ELISA antigen and SPR analyte) (human) (UniProt Q9NZQ7). Kind of assay: ELISA, scFv. The arrangement: unit not given here.
Sequence of human PD-L1 protein (soluble, ELISA antigen and SPR analyte) (human) (Q9NZQ7 19-238 limits assumed): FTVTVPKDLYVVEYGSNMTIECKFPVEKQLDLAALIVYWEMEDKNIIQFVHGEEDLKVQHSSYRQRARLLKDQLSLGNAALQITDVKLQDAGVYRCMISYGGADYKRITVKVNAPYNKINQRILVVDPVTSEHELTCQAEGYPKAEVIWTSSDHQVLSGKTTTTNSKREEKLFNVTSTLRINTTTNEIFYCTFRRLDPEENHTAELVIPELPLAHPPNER
Assay [4] concerns the target T1, human PD-L1 protein (soluble, ELISA antigen and SPR analyte) (human, UniProt Q9NZQ7 19-238).
T1 construct: biotinylated in the capture ELISA; also called PD-L1 (human)
Briefly: SPR, antibody captured on Protein A, PD-L1 as analyte. On the procedure: (§1) Antibodies were characterized for affinity and binding kinetics to PD-L1by SPR assay using ProteOn XPR36 (Bio-Rad). Protein A protein (Sigma) was immobilized to a GLM sensor chip (Bio-Rad) through amine coupling. Purified antibodies were flowed over the sensor chip and captured by the Protein A. The chip was rotated 90° and washed with running buffer (1 ><PBS/0.05% Tween20, Bio-Rad) until the baseline was stable. Five concentrations of human or cynomolgus monkey PD-L1and running buffer were flowed through the sensor chip at a flow rate of 100 μL/min for an association phase of 240s, followed by 600s dissociation. […] The chip was regenerated with pH 1.5 H₃PO₄ after each run. The association and dissociation curve was fit by 1:1 Langmuir binding model using ProteOn software.
On the technique in general: Surface plasmon resonance follows binding to a sensor surface in real time, without labels.

The target of assay [5] is T2, cynomolgus monkey PD-L1 protein (soluble) (cynomolgus monkey, UniProt G7PSE7 19-238).
T2 construct: also called cyno PD-L1
T2 sequence (G7PSE7 entry or part of it limits assumed): as the sequence (Q9NZQ7 19-238 limits assumed) above, with A33T, A34S, S62N, R68Q, Q82R, F173L, T185A, T192I, H215L counted along it
The description is as above. As to the method: as §1

Assay [6] deals with T3, human PD-L1 on the cell surface (CHO-K1 cells expressing human PD-L1) (human, UniProt Q9NZQ7 19-290).
T3 construct: the positions are those of the human PD-L1 alanine scan; also called cell surface human PD-L1; B7-H1
T3 sequence (Q9NZQ7 19-290 limits assumed): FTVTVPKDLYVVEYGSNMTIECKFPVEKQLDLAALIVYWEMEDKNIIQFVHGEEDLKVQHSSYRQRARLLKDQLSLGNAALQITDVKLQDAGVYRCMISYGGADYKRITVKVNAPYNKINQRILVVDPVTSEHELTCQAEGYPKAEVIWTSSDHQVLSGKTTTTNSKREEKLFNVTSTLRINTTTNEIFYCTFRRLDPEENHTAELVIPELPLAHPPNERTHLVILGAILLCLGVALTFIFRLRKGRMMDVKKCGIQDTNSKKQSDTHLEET
Kind of assay: FACS epitope binning: antibody mixed with biotinylated WBP315BMK6 on CHO-K1 cells expressing human PD-L1, Streptavidin-PE. As to the method:
(§2) CHO-K 1 cells expressing human PD-L1on the cell surface were incubated with the mixture of biotinylated benchmark antibodies and testing antibodies (serially diluted in wash buffer) at 4° C. for 1 hour. The cells were washed and the second antibody Streptavidin-PE were added and incubated for 30 min at 4° C. The cells were then washed once and resuspended in 1><PBS/1% BSA, and analyzed by flow cytometery.

Assay [7] addresses T3, human PD-L1 on the cell surface (CHO-K1 …). Briefly: FACS epitope binning: antibody mixed with biotinylated WBP315BMK1 on CHO-K1 cells expressing human PD-L1, Streptavidin-PE. On the procedure:
as §2

For assay [8], the target named is T4, mouse PD-L1 on the cell surface (mouse, UniProt Q9EP73 19-290).
T4 construct: whole, on cells; also called cell surface mouse PD-L1
T4 sequence (Q9EP73 19-290): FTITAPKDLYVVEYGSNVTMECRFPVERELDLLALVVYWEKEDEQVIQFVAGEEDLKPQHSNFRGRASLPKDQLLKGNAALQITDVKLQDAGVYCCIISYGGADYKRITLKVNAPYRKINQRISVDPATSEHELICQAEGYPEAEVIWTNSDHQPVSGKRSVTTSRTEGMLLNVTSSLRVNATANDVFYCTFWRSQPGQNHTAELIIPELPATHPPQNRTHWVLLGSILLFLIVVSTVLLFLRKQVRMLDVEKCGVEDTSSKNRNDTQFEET
Kind of assay: FACS on cells expressing mouse PD-L1, goat anti-human IgG Fc FITC. As to the method:
(§3) Cross-reactivity was measured by FACS. […] Testing antibodies were diluted in wash buffer (1><PBS/1% BSA) and incubated with cells at 4° C. for 1 hour. After washing, the secondary antibody goat anti-human IgG Fc FITC (Jackson ImmunoResearch Lab) was added and incubated at 4° C. in the dark for 1 hour. The cells were then washed once and resuspended in 1><PBS/1% BSA, and analyzed by flow cytometry (BD).

Assay [9] addresses T4, mouse PD-L1 on the cell surface. Kind of assay: FACS competition: antibody against mouse Fc fusion-mouse PD-1 binding to cells expressing mouse PD-L1.
The target of assay [10] is T3, human PD-L1 on the cell surface (CHO-K1 …). Kind of assay: FACS competition: antibody against mouse Fc fusion-human PD-1 binding to cells expressing human PD-L1.
Assay [11] concerns the target T5, cynomolgus PD-L1 on the cell surface (cynomolgus, UniProt G7PSE7 19-290).
T5 construct: also called cell surface cynomolgus PD-L1
Briefly: FACS on cells expressing cynomolgus PD-L1, goat anti-human IgG Fc FITC. On the procedure: as §3

Assay [12] has as its target T1, human PD-L1 protein (soluble, ELISA …). Kind of assay: SPR.
In assay [13] the target is T6, human PD-L2 on the cell surface (human, UniProt Q9BQ51 20-273).
T6 construct: whole, on cells; also called cell surface human PD-L2
T6 sequence (looked up): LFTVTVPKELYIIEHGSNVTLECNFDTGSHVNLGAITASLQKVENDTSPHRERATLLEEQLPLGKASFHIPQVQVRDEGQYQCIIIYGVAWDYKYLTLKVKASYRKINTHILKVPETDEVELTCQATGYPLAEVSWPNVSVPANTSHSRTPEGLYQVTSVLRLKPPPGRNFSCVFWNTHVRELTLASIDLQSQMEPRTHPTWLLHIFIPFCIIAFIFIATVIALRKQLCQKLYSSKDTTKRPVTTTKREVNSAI
Kind of assay: FACS on PD-L2+ CHO-K1 cells, goat anti-human IgG Fc FITC (cross-family test). On the procedure:
Testing antibodies were diluted in wash buffer (1><PBS/1% BSA) and incubated with cells at 4° C. for 1 hour. After washing, the secondary antibody goat anti-human IgG Fc FITC (Jackson ImmunoResearch Lab) was added and incubated at 4° C. in the dark for 1 hour. The cells were then washed once and resuspended in 1><PBS/1% BSA, and analyzed by flow cytometry (BD).

Assay [14] deals with T3, human PD-L1 on the cell surface (CHO-K1 …). Kind of assay: FACS on cells expressing human PD-L1, goat anti-human IgG Fc FITC. As to the method: as §3

T1 sequence (Q9NZQ7 19-238 limits assumed): as the sequence (Q9NZQ7 19-238 limits assumed) above
Sequence of mouse PD-L1 protein (soluble) (mouse) (Q9EP73 19-238 limits assumed): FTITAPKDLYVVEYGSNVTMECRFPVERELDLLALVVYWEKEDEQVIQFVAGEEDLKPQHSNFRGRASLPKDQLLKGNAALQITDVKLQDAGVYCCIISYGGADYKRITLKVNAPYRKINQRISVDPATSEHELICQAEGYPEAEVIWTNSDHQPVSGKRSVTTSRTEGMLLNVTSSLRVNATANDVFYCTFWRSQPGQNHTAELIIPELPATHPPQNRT
T5 sequence (G7PSE7 entry or part of it limits assumed): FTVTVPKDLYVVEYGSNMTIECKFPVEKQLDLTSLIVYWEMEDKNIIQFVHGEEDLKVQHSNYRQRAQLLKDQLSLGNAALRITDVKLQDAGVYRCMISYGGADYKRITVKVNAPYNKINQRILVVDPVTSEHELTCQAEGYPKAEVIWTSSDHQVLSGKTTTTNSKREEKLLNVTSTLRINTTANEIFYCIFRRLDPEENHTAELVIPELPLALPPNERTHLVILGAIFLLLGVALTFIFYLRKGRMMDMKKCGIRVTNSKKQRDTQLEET

B1: W3152-r11.135.5-zAb17-m6 (scFv) (scFv, part only; not given: linker, domain order, tag, V domains shown, not shown: another chain or arm of the molecule; small tags and cut ends)
VH: QVQLQESGPGLVKPSETLSLTCTVSGFSLTENSVSWIRQPPGKGLEWIGAVWSSGSTDYNSALKSRVTISRDTSKNQFSLKLSSVTAADTAVYYCTRSTYSNDFYYYFDYWGQGTMVTVSS
VL: SYELTQPPSVSVSPGQTASITCSGSELPKRYAYWYQQKPGQSIVRVIYKDSERPSGISERFSGSSSGNTATLTISGTQAMDEADYYCSSTYGDRKLPIFGGGTKLTVL
Consider B1, for which the Bmax amounted to 3.46 in assay [1], 2.4 in assay [2] and 3.22 in assay [3].

B2: W3152-r11.135.5-zAb17-m6-uIgG4L (antibody, V domains shown)
VH: B1 VH
VL: SYELTQPPSVSVSPGQTASITCSGSELPKRYAYWYQQKPGQSIVRVIYKDSERPSGISERFSGSSSGNTATLTISGTQAMDEADYYCSSTYGDRKLPIFGGGTKLTVLG
notes: also called W3152-r11.135.5-zAb17-m6-IgG4L
Consider B2, for which the Kd (usually the free concentration of one partner at which half of the binding sites on the other are occupied at equilibrium, for simple one-to-one binding) was determined as 0.514 nM in assay [4] and 0.403 nM in assay [5]. In addition, the results for the koff in assay [4], in assay [5] and in assay [12] were 0.00145 s⁻¹, 0.00101 s⁻¹ and 0.00103 s⁻¹, respectively. Further, the kon (as a rule, the rate constant with which the complex forms) in assay [4] turned out to be 2.81e+06 M⁻¹ s⁻¹; in [5], 2.52e+06 M⁻¹ s⁻¹. In addition, the “IC50 (read off the curve)” value in assay [6] was ~2 nM; in [7] it was ~0.6 nM; in [9] it was ~2 nM; in [10] it was ~0.1 nM. Also, the EC50 (read off the curve) – broadly, the midpoint of the concentration-response curve – in [8] is ~2 nM; in assay [11], ~1 nM; in [14] it was ~0.2 nM. Further, the binding result in [13] was “no binding (tested: concentration not shown)”.
